Experimental data taken from patent US20250276075A1, “METHODS OF TREATING AXL-EXPRESSING CANCERS WITH ANTI-AXL ANTIBODIES, ANTIBODY FRAGMENTS AND THEIR IMMUNOCONJUGATES” (BIOATLA, INC., priority 2020, published 2025).

What was measured:
Axl [1] = molecular target: Axl (UniProt P30530); assay: ELISA, 1:3 dilution
Axl [2] = molecular target: Axl (UniProt P30530); assay: ELISA, 1:9 dilution
Axl [3] = molecular target: T1, Axl (Homo sapiens, UniProt P30530); assay: Affinity ELISA of CPE mutant antibodies for binding to Axl at pH 6.0 over pH 7.4; conditions: heavy chain variable region mutants; for Affinity ELISA CPE mutant ratio (1:3, pH 6.0/7.4): 1:3 dilution; for Affinity ELISA CPE mutant ratio (1:9, pH 6.0/7.4): 1:9 dilution
T1 sequence (P30530 26-451 limits assumed): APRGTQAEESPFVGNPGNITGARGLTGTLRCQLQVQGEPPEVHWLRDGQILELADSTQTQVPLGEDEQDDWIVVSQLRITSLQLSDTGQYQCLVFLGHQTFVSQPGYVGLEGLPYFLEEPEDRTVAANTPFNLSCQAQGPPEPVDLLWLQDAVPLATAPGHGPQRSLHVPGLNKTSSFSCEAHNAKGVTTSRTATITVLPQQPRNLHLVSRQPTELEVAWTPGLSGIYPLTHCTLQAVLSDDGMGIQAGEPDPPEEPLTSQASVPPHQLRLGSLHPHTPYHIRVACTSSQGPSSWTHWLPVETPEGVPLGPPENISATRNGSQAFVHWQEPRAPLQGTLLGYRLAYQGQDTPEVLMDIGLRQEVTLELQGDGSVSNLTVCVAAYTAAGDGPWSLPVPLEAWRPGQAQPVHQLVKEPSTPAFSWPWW
Summary of the method: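 Single-point mutant anti-Axl antibody library (CPE) screened by ELISA for binding at pH 6.0 versus pH 7.4, at 1:3 and 1:9 antibody dilutions, in serum with FLAG-tag detection and carbonate (Krebs-Ringer) buffer. Selection criterion: pH 6.0/pH 7.4 binding ratio ≥1.5 at either dilution.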

B1: HC-S103Q (antibody, V domains shown)
VH: EVQLVQSGAEVKKPGATVKISCKVSGYSFTGHTMNWIRQPPGKGLEWIGLIKPSNGGTSYNQKFKGRVTISADKSISTAYLQWSSLKASDTAMYYCAHGHYEQYFAMDYWGQGTLVTVSS
VL: DIQMTQSPSSLSASVGDRVTITCKASQDVSSAVAWYQQKPGQAPRLLIYWASTRHTGVPSRFSGSGSGTEFTLTISSLQPDDFATYYCQEHFSTPLTFGQGTKVEIK
Axl [1]
  Affinity ELISA CPE mutant ratio (1:3, pH 6.0/7.4): 0.912
Axl [2]
  Affinity ELISA CPE mutant ratio (1:9, pH 6.0/7.4): 2.26
Axl [3]
  Affinity ELISA CPE mutant ratio (1:3, pH 6.0/7.4): 0.912
  Affinity ELISA CPE mutant ratio (1:9, pH 6.0/7.4): 2.256

B2: HC-Y104E (antibody, V domains shown)
VH: EVQLVQSGAEVKKPGATVKISCKVSGYSFTGHTMNWIRQPPGKGLEWIGLIKPSNGGTSYNQKFKGRVTISADKSISTAYLQWSSLKASDTAMYYCAHGHYESEFAMDYWGQGTLVTVSS
VL: DIQMTQSPSSLSASVGDRVTITCKASQDVSSAVAWYQQKPGQAPRLLIYWASTRHTGVPSRFSGSGSGTEFTLTISSLQPDDFATYYCQEHFSTPLTFGQGTKVEIK
Axl [1]
  Affinity ELISA CPE mutant ratio (1:3, pH 6.0/7.4): 1.32
Axl [2]
  Affinity ELISA CPE mutant ratio (1:9, pH 6.0/7.4): 1.8
Axl [3]
  Affinity ELISA CPE mutant ratio (1:3, pH 6.0/7.4): 1.321
  Affinity ELISA CPE mutant ratio (1:9, pH 6.0/7.4): 1.796

B3: HC-E102I (antibody, V domains shown)
VH: EVQLVQSGAEVKKPGATVKISCKVSGYSFTGHTMNWIRQPPGKGLEWIGLIKPSNGGTSYNQKFKGRVTISADKSISTAYLQWSSLKASDTAMYYCAHGHYISYFAMDYWGQGTLVTVSS
VL: DIQMTQSPSSLSASVGDRVTITCKASQDVSSAVAWYQQKPGQAPRLLIYWASTRHTGVPSRFSGSGSGTEFTLTISSLQPDDFATYYCQEHFSTPLTFGQGTKVEIK
Axl [1]
  Affinity ELISA CPE mutant ratio (1:3, pH 6.0/7.4): 2.02
Axl [2]
  Affinity ELISA CPE mutant ratio (1:9, pH 6.0/7.4): 1.7
Axl [3]
  Affinity ELISA CPE mutant ratio (1:3, pH 6.0/7.4): 2.016
  Affinity ELISA CPE mutant ratio (1:9, pH 6.0/7.4): 1.696

B4: HC-Y104P (antibody, V domains shown)
VH: EVQLVQSGAEVKKPGATVKISCKVSGYSFTGHTMNWIRQPPGKGLEWIGLIKPSNGGTSYNQKFKGRVTISADKSISTAYLQWSSLKASDTAMYYCAHGHYESPFAMDYWGQGTLVTVSS
VL: DIQMTQSPSSLSASVGDRVTITCKASQDVSSAVAWYQQKPGQAPRLLIYWASTRHTGVPSRFSGSGSGTEFTLTISSLQPDDFATYYCQEHFSTPLTFGQGTKVEIK
Axl [1]
  Affinity ELISA CPE mutant ratio (1:3, pH 6.0/7.4): 2.54
Axl [2]
  Affinity ELISA CPE mutant ratio (1:9, pH 6.0/7.4): 2.42
Axl [3]
  Affinity ELISA CPE mutant ratio (1:3, pH 6.0/7.4): 2.535
  Affinity ELISA CPE mutant ratio (1:9, pH 6.0/7.4): 2.416

B5: HC-T033I (antibody, V domains shown)
VH: EVQLVQSGAEVKKPGATVKISCKVSGYSFTGHIMNWIRQPPGKGLEWIGLIKPSNGGTSYNQKFKGRVTISADKSISTAYLQWSSLKASDTAMYYCAHGHYESYFAMDYWGQGTLVTVSS
VL: DIQMTQSPSSLSASVGDRVTITCKASQDVSSAVAWYQQKPGQAPRLLIYWASTRHTGVPSRFSGSGSGTEFTLTISSLQPDDFATYYCQEHFSTPLTFGQGTKVEIK
Axl [1]
  Affinity ELISA CPE mutant ratio (1:3, pH 6.0/7.4): 1.59
Axl [2]
  Affinity ELISA CPE mutant ratio (1:9, pH 6.0/7.4): 1
Axl [3]
  Affinity ELISA CPE mutant ratio (1:3, pH 6.0/7.4): 1.594
  Affinity ELISA CPE mutant ratio (1:9, pH 6.0/7.4): 1.005

B6: HC-E102A (antibody, V domains shown)
VH: EVQLVQSGAEVKKPGATVKISCKVSGYSFTGHTMNWIRQPPGKGLEWIGLIKPSNGGTSYNQKFKGRVTISADKSISTAYLQWSSLKASDTAMYYCAHGHYASYFAMDYWGQGTLVTVSS
VL: DIQMTQSPSSLSASVGDRVTITCKASQDVSSAVAWYQQKPGQAPRLLIYWASTRHTGVPSRFSGSGSGTEFTLTISSLQPDDFATYYCQEHFSTPLTFGQGTKVEIK
Axl [1]
  Affinity ELISA CPE mutant ratio (1:3, pH 6.0/7.4): 1.54
Axl [2]
  Affinity ELISA CPE mutant ratio (1:9, pH 6.0/7.4): 1.69
Axl [3]
  Affinity ELISA CPE mutant ratio (1:3, pH 6.0/7.4): 1.538
  Affinity ELISA CPE mutant ratio (1:9, pH 6.0/7.4): 1.687

B7: HC-Y101N (antibody, V domains shown)
VH: EVQLVQSGAEVKKPGATVKISCKVSGYSFTGHTMNWIRQPPGKGLEWIGLIKPSNGGTSYNQKFKGRVTISADKSISTAYLQWSSLKASDTAMYYCAHGHNESYFAMDYWGQGTLVTVSS
VL: DIQMTQSPSSLSASVGDRVTITCKASQDVSSAVAWYQQKPGQAPRLLIYWASTRHTGVPSRFSGSGSGTEFTLTISSLQPDDFATYYCQEHFSTPLTFGQGTKVEIK
Axl [1]
  Affinity ELISA CPE mutant ratio (1:3, pH 6.0/7.4): 2.17
Axl [2]
  Affinity ELISA CPE mutant ratio (1:9, pH 6.0/7.4): 2.91
Axl [3]
  Affinity ELISA CPE mutant ratio (1:3, pH 6.0/7.4): 2.174
  Affinity ELISA CPE mutant ratio (1:9, pH 6.0/7.4): 2.907

B8: HC-H100P (antibody, V domains shown)
VH: EVQLVQSGAEVKKPGATVKISCKVSGYSFTGHTMNWIRQPPGKGLEWIGLIKPSNGGTSYNQKFKGRVTISADKSISTAYLQWSSLKASDTAMYYCAHGPYESYFAMDYWGQGTLVTVSS
VL: DIQMTQSPSSLSASVGDRVTITCKASQDVSSAVAWYQQKPGQAPRLLIYWASTRHTGVPSRFSGSGSGTEFTLTISSLQPDDFATYYCQEHFSTPLTFGQGTKVEIK
Axl [1]
  Affinity ELISA CPE mutant ratio (1:3, pH 6.0/7.4): 2.58
Axl [2]
  Affinity ELISA CPE mutant ratio (1:9, pH 6.0/7.4): 1.18
Axl [3]
  Affinity ELISA CPE mutant ratio (1:3, pH 6.0/7.4): 2.575
  Affinity ELISA CPE mutant ratio (1:9, pH 6.0/7.4): 1.179

B9: HC-F105N (antibody, V domains shown)
VH: EVQLVQSGAEVKKPGATVKISCKVSGYSFTGHTMNWIRQPPGKGLEWIGLIKPSNGGTSYNQKFKGRVTISADKSISTAYLQWSSLKASDTAMYYCAHGHYESYNAMDYWGQGTLVTVSS
VL: DIQMTQSPSSLSASVGDRVTITCKASQDVSSAVAWYQQKPGQAPRLLIYWASTRHTGVPSRFSGSGSGTEFTLTISSLQPDDFATYYCQEHFSTPLTFGQGTKVEIK
Axl [1]
  Affinity ELISA CPE mutant ratio (1:3, pH 6.0/7.4): 2.36
Axl [2]
  Affinity ELISA CPE mutant ratio (1:9, pH 6.0/7.4): 2.64
Axl [3]
  Affinity ELISA CPE mutant ratio (1:3, pH 6.0/7.4): 2.364
  Affinity ELISA CPE mutant ratio (1:9, pH 6.0/7.4): 2.642

B10: HC-E102F (antibody, V domains shown)
VH: EVQLVQSGAEVKKPGATVKISCKVSGYSFTGHTMNWIRQPPGKGLEWIGLIKPSNGGTSYNQKFKGRVTISADKSISTAYLQWSSLKASDTAMYYCAHGHYFSYFAMDYWGQGTLVTVSS
VL: DIQMTQSPSSLSASVGDRVTITCKASQDVSSAVAWYQQKPGQAPRLLIYWASTRHTGVPSRFSGSGSGTEFTLTISSLQPDDFATYYCQEHFSTPLTFGQGTKVEIK
Axl [1]
  Affinity ELISA CPE mutant ratio (1:3, pH 6.0/7.4): 1.88
Axl [2]
  Affinity ELISA CPE mutant ratio (1:9, pH 6.0/7.4): 1.36
Axl [3]
  Affinity ELISA CPE mutant ratio (1:3, pH 6.0/7.4): 1.879
  Affinity ELISA CPE mutant ratio (1:9, pH 6.0/7.4): 1.363

B11: HC-F105S (antibody, V domains shown)
VH: EVQLVQSGAEVKKPGATVKISCKVSGYSFTGHTMNWIRQPPGKGLEWIGLIKPSNGGTSYNQKFKGRVTISADKSISTAYLQWSSLKASDTAMYYCAHGHYESYSAMDYWGQGTLVTVSS
VL: DIQMTQSPSSLSASVGDRVTITCKASQDVSSAVAWYQQKPGQAPRLLIYWASTRHTGVPSRFSGSGSGTEFTLTISSLQPDDFATYYCQEHFSTPLTFGQGTKVEIK
Axl [1]
  Affinity ELISA CPE mutant ratio (1:3, pH 6.0/7.4): 3.9
Axl [2]
  Affinity ELISA CPE mutant ratio (1:9, pH 6.0/7.4): 4.54
Axl [3]
  Affinity ELISA CPE mutant ratio (1:3, pH 6.0/7.4): 3.898
  Affinity ELISA CPE mutant ratio (1:9, pH 6.0/7.4): 4.545

B12: HC-Y104C (antibody, V domains shown)
VH: EVQLVQSGAEVKKPGATVKISCKVSGYSFTGHTMNWIRQPPGKGLEWIGLIKPSNGGTSYNQKFKGRVTISADKSISTAYLQWSSLKASDTAMYYCAHGHYESCFAMDYWGQGTLVTVSS
VL: DIQMTQSPSSLSASVGDRVTITCKASQDVSSAVAWYQQKPGQAPRLLIYWASTRHTGVPSRFSGSGSGTEFTLTISSLQPDDFATYYCQEHFSTPLTFGQGTKVEIK
Axl [1]
  Affinity ELISA CPE mutant ratio (1:3, pH 6.0/7.4): 1.84
Axl [2]
  Affinity ELISA CPE mutant ratio (1:9, pH 6.0/7.4): 1.74
Axl [3]
  Affinity ELISA CPE mutant ratio (1:3, pH 6.0/7.4): 1.845
  Affinity ELISA CPE mutant ratio (1:9, pH 6.0/7.4): 1.741
